Legend:
[1] = system: penile smooth muscle (alpha actin); experiment: Alpha-smooth muscle actin immunohistochemistry of rat penis with image analysis; format: in vivo; conditions: castrated rats
Protocol: Frozen sections were cut at 10 microns, adhered to charged slides, air dried for 15 minutes then rehydrated with 0.05M PBS for 5 minutes. […] The serum solution was drained and then sections were incubated for 60 minutes with mouse monoclonal anti-alpha-smooth muscle actin (Sigma, St. Louis, Mo.) at a dilution of 1:4000 in PBS. […] Immunochemistry was performed in penile tissues from 4 rats randomly chosen from each subgroup.
Cross-sectional micrographs of the rat penis at the proximal shaft were examined after immunohistochemistry for alpha actin. Alpha actin, a marker for penile smooth muscle, stains brown and can be seen surrounding the sinusoidal spaces. […] Computerized image analysis with Adobe Photoshop was used to quantify the area of immunostaining by counting the number of digitized pixels corresponding to the area of brown staining, thereby providing some numerical comparison of the quantity of smooth muscle in each specimen.

[2] = system: dorsal nerve, intracavernous smooth muscle cells and endothelial cells; experiment: Transmission electron microscopy of penile tissue (Example 2); format: in vivo, rat; conditions: castrated rats, testosterone replacement
Source text: Thick sections were cut and stained with toluidine blue to select specific areas for thin sectioning. Thin sections were cut, stained with both uranyl acetate and Reynold's Lead, and examined under the Phillips Tecnai 10 transmission electron microscope. Penile tissues from 4 randomly chosen rats in each subgroups were subjected to electron microscopic examinations.

[3] = system: venogenic erectile dysfunction in castrated rats; experiment: Pharmacologic cavernosometry, prevention trial in castrated rats (Experiment 2); format: in vivo, rat; conditions: castrated rats treated at castration, cavernosometry 9 weeks after castration
Source text: For the prevention trial of VEGF in rats with venogenic erectile ED, adult males were castrated and immediately treated with hormone, intracavernosal VEGF. […] Control animals received an silastic implant containing saline (n=3), an intracavernous injection of normal saline (n=3) or an […] transfection vector expressing lacZ reporter gene without the VEGF gene (AAV-LacZ, n=11).
A 1.5 cm oblique incision was made in the lower abdominal skin extending from the midline just above the penile hilum to below the level of the glans about 1 cm lateral to the midline. The skin was sharply dissected from the anterior surface of the penis and then the penis was retracted anteriorly using a towel clamp placed around it atraumatically with the foreskin left intact. Using blunt dissection the penile base and crura were exposed. The ischiocavernosus muscles were sharply dissected off the anterior surface of the crus until the white of the tunica albuginea of the corpora cavernosa was identified. The crus was then gently cannulated using a 23 gage butterfly needle, and saline flush with a visual erectile response was used to confirm that the needle tip was truly intracavernosal. The intracavernosal injections were then administered with either VEGF protein (Calbiochem, La Jolla, Calif. #676472) at the dosage 4 ug/injection (in 0.1 cc PBS with 0.1% BSA), AAV-VEGF (10^10 viral particles in 0.1 cc NS), AAV-LacZ (10^10 viral particles in 0.1 cc NS), or 0.1 ml NS alone. The AAV-VEGF and AAV-LacZ constructs were a generous gift from Dr. Yuet W. Kan (Howard Hughes Medical Research Institute, San Francisco, Calif.).^19,20 Following injection, the needle was left in place for 5 minutes and then removed to allow the medication to diffuse throughout the cavernosal space. Immediately thereafter, pinpoint electrocautery was applied to the needle hole for hemostasis and then the wound was closed and the animal recovered as above.
(§1) Following castration, testosterone- or saline-filled silastic implants were placed in the subcutaneous tissue of the anterior abdominal wall, as previously described.^17 Implants were prepared using sterile silastic tubing (Dow Coming, Midland, Mich. #602-265, inner diameter 0.062″) that was filled with testosterone propionate powder (Sigma Chemical, St. Louis, Mo.) with the aid of wall suction.
To perform pharmacologic cavemosometry, both the right and left crura were separately cannulated using 23 gauge butterfly needles as described above. One cannula was flushed with sterile heparinized saline (100 U heparin/ml NS) and attached to a pressure detector for continuous intracorporal pressure (ICP) monitoring as previously described.^11 The contralateral cannula was attached to an infusion pump (Harvard Pump, Southwick, Mass. #55-2222), filled with sterile dilute heparinized saline (20 U heparin/ml NS). The baseline ICP was recorded (flaccid ICP) and then a dose of papavarine (1 mg in 0.1 cc NS) was administered through the infusion cannula. Five minutes was allowed for the papavarine to diffuse throughout the corpora and then the infusion cannula was flushed with heparinized saline and the pressure monitor cannula vented to normalize ICP after flushing. After 5 minutes more, the ICP was again recorded (ICP after papavarine) and the infusion started. An infusion rate of 0.05 ml/min was started and increased (by 0.05 ml/min every 10 seconds) until the ICP started to rise. Subsequent increases in inflow rate were made only after the ICP reached a plateau pressure. By slowly adjusting the inflow rate, an intracorporal pressure of 100 cm H2O (erectile pressure) was reached and the infusion rate required to maintain this pressure recorded (the maintenance rate). After this pressure was steady for 20 seconds, the infusion was terminated and the change in ICP over the subsequent 60 seconds was recorded (the drop rate).

[4] = Serum testosterone radioimmunoassay; format: in vivo, rat; conditions: castrated rats given subcutaneous testosterone implants
Protocol: as §1

[5] = system: major pelvic ganglia (MPG); experiment: Nerve fiber outgrowth from cultured major pelvic ganglia; format: cell-based, rat; set-up: Average fiber length / FIBER LENGTH (average lengths of the growing fibers): unit not given here
Protocol: Each freshly isolated MPG was cut into 8 pieces of approximately equal size and each piece was then attached to a Matrigel-coated coverslip. The MPG pieces were cultured in serum-free medium supplemented with phosphate-buffered saline (PBS, control), 50 ng/ml of vascular endothelial growth factor (VEGF), 20 ng/ml of brain-derived neurotrophic factor (BDNF), or VEGF+BDNF. After 2 days of incubation, the ganglial tissues with their outgrowing nerve fibers were stained for the expression of NADPH diaphorase and acetylcholinesterase (AchE).
We have been using several experimental systems to test the efficacy of combination growth factor therapies for impotence. One system employs cultured rat major pelvic ganglia (MPG) that are known to innervate all urogenital organs, including the penis. We discovered that the cultured MPG are able to sprout new nerve fibers (nerve regeneration) from the axonal ends during the first 3 days of culture, especially when treated with VEGF, BDNF, NT-3, or NT-4.

[6] = system: NADPH diaphorase-positive nerve fibers and neurons; experiment: NADPH diaphorase staining of penile tissue and major pelvic ganglia; format: in vivo, rat
Protocol: Sections were incubated with 0.1 mM. NADPH, 0.2 mM. nitroblue tetrazolium, 0.2% Triton X-100 in 0.1 M. PO4, pH 8.0, for 60 min. at room temperature. The reaction was terminated by washing in buffer. Slides were then coverslipped with buffered glycerin as the mounting medium.^13
The presence of NADPH diaphorase-positive nerves was evidenced as a blue stain in the major pelvic ganglia, dorsal nerves and cavernous tissue, and the staining pattern was assessed by counting the number of positive neurons in 4 random fields (magnification 400×). The percentage of darkly and lightly stained cells in the major pelvic ganglia was calculated by dividing the number of these cells by the total number of positive cells.

[7] = system: blood vessels and nerve fibers in the penis; experiment: Penile tissue histology, nNOS staining and electron microscopy (Example 9); format: in vivo, rat; conditions: 3 months after bilateral cavernous nerve freezing
Protocol: (§2) Three months old Sprague-Dawley rats (N=30) were used: 6 underwent a sham operation; 24 underwent bilateral cavernous nerve freezing and then randomly divided into four groups of 6 each. The four groups of rats received intracavernous injection of one of the following: 1) phosphate buffered saline (PBS), 2) VEGF protein (4 μg), 3) adeno-associated virus (AAV)-BDNF, and 4). VEGF+AAV-BDNF. Erectile function was assessed by cavernous nerve electrostimulation 3 months later and samples of penile tissue were obtained for electron microscopy and immunohistochemical studies.

[8] = system: Animal Model for Neurogenic Impotence; experiment: Maximal intracavernous pressure on electrostimulation after bilateral cavernous nerve freezing (Example 3); format: in vivo, rat; conditions: 8 weeks after bilateral cavernous nerve freezing
Source text: Male Sprague-Dawley rats (N=34; age, 3 months; weight, 350 to 400 gm.) were divided into two groups: sham (N=10) and experimental (N=24). The rats in the sham group underwent periprostatic dissection and identification of bilateral cavernous nerves without other manipulation; those in the experimental groups underwent bilateral cavernous nerve freezing. Several minutes after surgery, half of the experimental animals (LacZ group, N=12) received intracavernous AAV-LacZ injection, and the remainder (BDNF group, N=12) received AAV-BDNF. Half of the rats in each group were sacrificed at week 4 and the rest at week 8 for collection of penile tissue. In all animals, erectile function was assessed by electrostimulation of the cavernous nerves before sacrifice.
Under intraperitoneal pentobarbital sodium anesthesia (50 mg./kg.), each animal was placed on a heating pad to maintain its body temperature at 37° C. […]
At weeks 4 and 8 postoperatively, rats in each group were re-explored for direct electrostimulation of the cavernous nerves before tissue collection. […] Each cavernous nerve was stimulated and intracavernous pressures were measured and recorded with a Macintosh computer programmed with LabVIEW 4.0 software (National Instruments, Austin, Tex.). The pressure for each animal was determined by the mean of both sides.

[9] = system: Erectile Dysfunction Induced by Hypercholesterolemia in a Rat Model; experiment: Erectile function in rats fed a high cholesterol diet (Example 5); format: in vivo; conditions: 6 months cholesterol diet, 4 months after intracavernous treatment
Protocol: Twenty-one Sprague-Dawley rats were used. All rats were fed a 2.5% cholesterol diet with added lard starting at 2 weeks of age for 6 months. The rats were divided into three groups. All groups after two months of a high cholesterol diet underwent serum evaluation of cholesterol and intracavernous injection of saline or treatment. Group 1, the control group, received intracavernous injection of saline, group 2, the VEGF group, received intracavernous injection of 4 ug of VEGF, and group 3, the AAV-BDNF group received 15 ug of BDNF. After six months of cholesterol diet and 4 months of treatment, all rats were subjected to cavernous nerve electrostimulation, cavernosometry with intracavernous papaverine injection, and infusion cavernosometry with heparinized saline to measure erectile function.

[10] = system: cavernous nerve injury in rats; experiment: Maximal intracavernous pressure after bilateral cavernous nerve freezing (Example 9, VENT); format: in vivo, rat; conditions: 3 months after bilateral cavernous nerve freezing, intracavernous injection
Protocol: as §2

[11] = 50 ng/ml VEGF, 20 ng/ml BDNF, 2 days of incubation

## CCC(=O)O[C@H]1CC[C@H]2[C@@H]3CCC4=CC(=O)CC[C@]4(C)[C@H]3CC[C@]12C [Testosterone, testosterone propionate, reference compound]
[1]
  quantity of penile smooth muscle, qualitative: returns to normal morphology
[2]
  nerve fibers and myelin sheath appearance: appeared similar to the sham group
[3]
  Drop Rate in 1 min.: 11.7(+/−16) cm H2O
  Flaccid ICP: 28.9 cm H2O
  ICP After Papavarine: 87.7(+/−26) cm H2O
  Maintenance Rate: 0.09(+/−0.1) ml/min
[4]
  serum testosterone titer: in the normal range

B1: NT-4: neurotrophin-4 (protein, UniProt P34130 81-210, looked up)
Neurotrophin-4: GVSETAPASRRGELAVCDAVSGWVTDRRTAVDLRGREVEVLGEVPAAGGSPLRQYFFETRCKADNAEEGGPGAGGGGCRGVDRRHWVSECKAKQSYVRALTADAQGRVGWRWIRIDTACVCTLLSRTGRA
[5]; 48 hours after culturing
  FIBER LENGTH (average lengths of the growing fibers): 81

B2: BDNF: brain-derived neurotrophic factor added to MPG culture medium (Examples 7, 8) (protein, UniProt P23560 19-247, looked up)
Neurotrophic factor BDNF …: APMKEANIRGQGGLAYPGVRTHGTLESVNGPKAGSRGLTSLADTFEHVIEELLDEDQKVRPNEENNKDADLYTSRVMLSSQVPLEPPLLFLLEEYKNYLDAANMSMRVRRHSDPARRGELSVCDSISEWVTAADKKTAVDMSGGTVTVLEKVPVSKGQLKQYFYETKCNPMGYTKEGCRGIDKRHWNSQCRTTQSYVRALTMDSKKRIGWRFIRIDTSCVCTLTIKRGR
[6]; 4 Weeks
  NADPH Diaphorase-positive Nerve Fibers, Cavernous Tissue: 45.5 ± 10.5
  NADPH Diaphorase-positive Nerve Fibers, Dorsal Nerve: 65.5 ± 15.5
  NADPH Diaphorase-positive Neurons in the Major Pelvic Ganglion, % Dark Stain: 62.1 ± 13.1 %
  NADPH Diaphorase-positive Neurons in the Major Pelvic Ganglion, % Light Stain: 38.6 ± 11.8%
  NADPH Diaphorase-positive Neurons in the Major Pelvic Ganglion, Dark Stain: 61.8 ± 23.7
  NADPH Diaphorase-positive Neurons in the Major Pelvic Ganglion, Light Stain: 33.8 ± 9
  NADPH Diaphorase-positive Neurons in the Major Pelvic Ganglion, Total: 95.7 ± 22.4
[6]; 8 Weeks
  NADPH Diaphorase-positive Nerve Fibers, Cavernous Tissue: 66.1 ± 15.2
  NADPH Diaphorase-positive Nerve Fibers, Dorsal Nerve: 86.4 ± 12.2
  NADPH Diaphorase-positive Neurons in the Major Pelvic Ganglion, % Dark Stain: 64.3 ± 10.7 %
  NADPH Diaphorase-positive Neurons in the Major Pelvic Ganglion, % Light Stain: 35.6 ± 10.7%
  NADPH Diaphorase-positive Neurons in the Major Pelvic Ganglion, Dark Stain: 69.4 ± 21.1
  NADPH Diaphorase-positive Neurons in the Major Pelvic Ganglion, Light Stain: 38.4 ± 14
  NADPH Diaphorase-positive Neurons in the Major Pelvic Ganglion, Total: 107.8 ± 23.58
[7]
  nNOS positive nerve fibers in the dorsal nerves compared to PBS group: increased number
[8]
  Maximal intracavernous Pressure In Response to Electrostimulation: 61.3 ± 12.5 cm H2O
[9]
  sustained intracavernous pressures during the pharmacologic erection phase of cavernosometry, vs high cholesterol controls: significantly higher
[5]; [11]
  AchE staining intensity: 1,102±211 IDV
  NADPH staining intensity: 9,376±111 IDV
[10]
  maximal intracavernous pressure (MICP), mean±SEM: 69.75±8.54 cm H2O

From patent US7265091B2, “Methods and compositions for treating male erectile dysfunction” (The Regents of the University of California, priority 2000, dated 2007)
